Reference: patent publication US20190127457A1 (Hoffmann-La Roche, published 2019)

Target: T1, human neonatal Fc-receptor (FcRn) (human, UniProt P55899 24-297; P61769 21-119)
T1 construct: also called human FcRn; huFcRn
Experiment: symmetric HHY-AAA mutation

T1 sequence (P55899 24-297 limits assumed, chain 1 of 2): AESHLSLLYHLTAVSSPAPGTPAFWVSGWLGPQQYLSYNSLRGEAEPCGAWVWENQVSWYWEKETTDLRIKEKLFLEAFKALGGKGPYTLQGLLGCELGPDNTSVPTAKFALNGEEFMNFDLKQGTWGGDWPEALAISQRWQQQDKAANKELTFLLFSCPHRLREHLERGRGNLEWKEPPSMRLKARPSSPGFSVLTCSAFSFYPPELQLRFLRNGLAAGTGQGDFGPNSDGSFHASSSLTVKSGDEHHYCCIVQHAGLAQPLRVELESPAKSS
T1 sequence (P61769 21-119 limits assumed, chain 2 of 2): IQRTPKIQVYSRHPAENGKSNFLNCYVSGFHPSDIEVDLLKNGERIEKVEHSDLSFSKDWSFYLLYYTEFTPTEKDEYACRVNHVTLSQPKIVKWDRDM

B1: IGF-1R 0045 (antibody, human IgG1, kappa)
light: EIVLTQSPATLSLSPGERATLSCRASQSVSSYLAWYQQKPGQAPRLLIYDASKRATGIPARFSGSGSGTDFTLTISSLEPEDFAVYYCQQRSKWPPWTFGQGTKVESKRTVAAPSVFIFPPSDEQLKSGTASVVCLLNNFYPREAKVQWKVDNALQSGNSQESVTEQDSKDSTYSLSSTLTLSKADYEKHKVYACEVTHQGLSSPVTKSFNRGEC
heavy: QVELVESGGGVVQPGRSQRLSCAASGFTFSSYGMHWVRQAPGKGLEWVAIIWFDGSSTYYADSVRGRFTISRDNSKNTLYLQMNSLRAEDTAVYFCARELGRRYFDLWGRGTLVSVSSASTKGPSVFPLAPSSKSTSGGTAALGCLVKDYFPEPVTVSWNSGALTSGVHTFPAVLQSSGLYSLSSVVTVPSSSLGTQTYICNVNHKPSNTKVDKKVEPKSCDKTHTCPPCPAPELLGGPSVFLFPPKPKDTLMISRTPEVTCVVVDVSHEDPEVKFNWYVDGVEVHNAKTKPREEQYNSTYRVVSVLTVLAQDWLNGKEYKCKVSNKALPAPIEKTISKAKGQPREPQVYTLPPSRDELTKNQVSLTCLVKGFYPSDIAVEWESNGQPENNYKTTPPVLDSDGSFFLYSKLTVDKSRWQQGNVFSCSVMHEALANHATQKSLSLSPG
notes: Roles inferred; also called <IGF-1R> IgG1 with H310A, H433A, Y436A; anti-IGF-1R IgG1 with HHY-AAA mutation
B1: no binding.
